The values that follow come from patent US20210101944A1 (WEST CHINA HOSPITAL SICHUAN UNIVERSITY, published 2021).

In experiment [1] the target is T1, death receptor fusion protein DR4-Fc (UniProt O00220 24-239, limits assumed).
T1 construct: Captured on a protein A-coated BLI probe; also called TRAIL R1; not shown: Fc part
Briefly: BLI, DR4-Fc on protein A-coated probe; TRAIL01 to DR4-Fc. Background: Biolayer interferometry detects binding as a change in optical thickness at a sensor tip.

The target of experiment [2] is T2, death receptor fusion protein DR5-Fc (UniProt O14763 56-182, limits assumed).
T2 construct: Captured on a protein A-coated BLI probe; also called TRAIL R2; not shown: Fc part
Briefly: BLI, DR5-Fc on protein A-coated probe; TRAIL01 to DR5-Fc.

Experiment [3] concerns the target T2, death receptor fusion protein DR5-Fc. Description: Biolayer interferometry, DR5-Fc captured on a protein A probe, TRAIL01 at 5-250 nM.
Description: (§1) The binding constant Ka and the dissociation constant Kd were determined, and then the affinity KD was calculated according to the formula (KD=Kd/Ka).
Experiment [4] deals with T1, death receptor fusion protein DR4-Fc. Description: BLI, DR4-Fc on protein A-coated probe; IgBD-TRAIL01 to DR4-Fc.
Description: as §1
Experiment [5] has as its target T2, death receptor fusion protein DR5-Fc. Description: BLI, DR5-Fc on protein A-coated probe; IgBD-TRAIL01 to DR5-Fc.
Description: as §1
For experiment [6] the target is unchanged. Briefly: Biolayer interferometry, DR5-Fc captured on a protein A probe, IgBD-TRAIL01 at 10-500 nM.
Description: as §1
The target in the next experiment is T3, Human IgG (human).
T3 construct: also called hIgG
Description: ELISA, coated hIgG, pH 7.4, detection with biotin-labeled anti-TRAIL antibody and HRP-streptavidin. (An ELISA detects its analyte on a solid surface through an enzyme-linked reagent.)

The target of experiment [7] is T1, death receptor fusion protein DR4-Fc. Briefly: BLI, DR4-Fc on protein A-coated probe (method of Example 3).
Description: as §1
In experiment [8] the target is T2, death receptor fusion protein DR5-Fc. Description: BLI, DR5-Fc on protein A-coated probe (method of Example 3).
Description: as §1

T1 sequence (O00220 24-239 limits assumed): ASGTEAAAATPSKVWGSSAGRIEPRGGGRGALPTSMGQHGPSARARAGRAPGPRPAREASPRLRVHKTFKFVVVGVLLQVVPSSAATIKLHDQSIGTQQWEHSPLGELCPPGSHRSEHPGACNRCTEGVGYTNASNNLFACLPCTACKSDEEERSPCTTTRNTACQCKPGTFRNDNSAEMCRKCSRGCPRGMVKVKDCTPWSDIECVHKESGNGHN
T2 sequence (O14763 56-182 limits assumed): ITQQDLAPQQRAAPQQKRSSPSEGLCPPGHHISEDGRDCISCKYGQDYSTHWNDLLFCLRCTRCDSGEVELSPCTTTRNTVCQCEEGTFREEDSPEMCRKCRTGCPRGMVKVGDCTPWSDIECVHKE
Description for Human IgG: 1) ELISA Human IgG (hIgG) or mouse IgG (mIgG) was coated in a well plate for ELISA. […] After incubating at 37° C. for 1 h, excess protein was removed.

B1: TRAIL01 (ligand)
chain: VRERGPQRVAAHITGTRGRSNTLSSPNSKNEKALGRKINSWESSRSGHSFLSNLHLRNGELVIQEKGFYYIYSQTYFRFQEEIKENTKNDKQMVQYIYKYTSYPDPILLMKSARNSCWSKDAEYGLYSIYQGGLFELKKDDRIFVSVTNEHLIDMDHEASFFGAFLVG
notes: Control protein without IgBD; also called TRAIL1
Consider B1, for which the values for the dissociation constant (Kd) in experiment [1], in experiment [2] and in experiment [3] were 4 nM, 1.5 nM and 1.43 nM, respectively.

B2: fusion protein IgBD-TRAIL01 (other)
chain: TTYKLVINGKTLKGETTTKAVDAETAAAAFAQYARRNGVDGVWTYDDATKTFTVTEGGGGSGGGGSGGGGSVRERGPQRVAAHITGTRGRSNTLSSPNSKNEKALGRKINSWESSRSGHSFLSNLHLRNGELVIQEKGFYYIYSQTYFRFQEEIKENTKNDKQMVQYIYKYTSYPDPILLMKSARNSCWSKDAEYGLYSIYQGGLFELKKDDRIFVSVTNEHLIDMDHEASFFGAFLVG
notes: also called IgBD-TRAIL1
B2: the Kd – broadly, the equilibrium constant for the complex coming apart – in [4] amounted to 4.33 nM; in experiment [5], 1.43 nM; in experiment [6], 1.5 nM. In the experiment with Human IgG, the EC50 (read off the curve) (as a rule, the concentration needed to bring the measured effect to its halfway point) was about 0.4 nM.

B3: fusion protein IgBD-TRAIL02 (other)
chain: TTYKLVINGKTLKGETTTKAVDAETAEKAFKQYANDNGVDGVWTYDDATKTFTVTEGGGGSGGGGSGGGGSVRERGPQRVAAHITGTRGRSNTLSSPNSKNEKALGRKINSWESSRSGHSFLSNLHLRNGELVIQEKGFYYIYSQTYFRFQEEIKENTKNDKQMVQYIYKYTSYPDPILLMKSARNSCWSKDAEYGLYSIYQGGLFELKKDDRIFVSVTNEHLIDMDHEASFFGAFLVG
notes: No tag is stated
Take B3: the values for the dissociation constant (Kd) in experiment [7] and in [8] were 3.96 nM and 1.79 nM, respectively.
